Data from patent US20180369425A1, “LINKED AND OTHER pH-TRIGGERED COMPOUNDS” (priority 2017, published 2018).
“And” between values parts separate entries of the source, which are not always exact repeats. Equal entries are not always repeated. Residues, ends and D or L forms follow the SMILES beside them. *: point of attachment. X1 = CC1(C)C(/C=C/C=C/C=C/C=C2/N(CCCCCC(=O)NCCN3C(=O)CC(*)C3=O)c3ccc4ccccc4c3C2(C)C)=[N+](CCCCS(=O)(=O)[O-])c2ccc3ccccc3c21

How the values were obtained:
[1] = system: red blood cells (RBCs); experiment: Hemolysis assay with ICG-pHLIP; format: cell-based, human; details: 0.075 to 1.2 nmol in 150 μL, 37° C., 2 hours
Experimental: Single donor human whole blood was purchased from Innovative Research. Red blood cells (RBCs) were collected by centrifugation of whole blood at 2000 rpm for 10 minutes followed by washing three times with Dulbecco's PBS (DPBS) and re-suspended in DPBS at a concentration of 7.5% (v:v). Varying concentrations of ICG-pHLIP (0.075, 0.15, 0.3, 0.6, 1.2 nmol) in DPBS were added to RBCs to give a 5% RBC suspension (total volume of solution with RBC was 150 μL). The resultant mixtures were incubated at 37° C. for 2 hours and then centrifuged at 2000 rpm for 10 min. Hemolysis was assessed by the release of hemoglobin, which was monitored by measuring the absorbance at 450 nm of the supernatant hemoglobin. DPBS was used as negative controls. As positive controls, which result in 100% lysis of RBCs, we used i) water and ii) 10% of Triton X-100. The percentage of hemolysis was calculated as follows: […]
where, ODTest, ODNC, and ODPC are the optical density reading (absorbance) values of the test sample, negative control and positive control, respectively. The assay was performed in triplicate. The amount of RBC lysis was less than 2% in all samples. For the reference, in mice study 2.5 nmol of ICG pHLIP® is injected per mouse (a 20 g mouse has about 1.2 mL of blood), or 2.08 nmol/ml (the dose will be much lower in humans), while in hemolysis assay the maximum tested concentration was 8 nmol/ml.

[2] = Blood clearance of ICG-pHLIP after single tail vein injection; format: in vivo, mouse; details: for Concentration in blood, Mean ± St. D.: 5 animals; for Concentration in blood, Mean ± St. D. / Concentration in blood: 2.5 nmol tail vein; for Concentration in blood: individual animal, listed as ICG-Var3
Experimental: BALB/cAcNHsd mice ranging in age from 5 to 6 weeks obtained from Envigo RMS Inc were used in the study. Mouse mammary 4T1 cancer cells were subcutaneously implanted in the right flank (8×10^5 cells/0.1 mL/flank) of adult female mice. Triple negative 4T1 tumor model closely mimics stage IV of human breast cancer. When tumors reached 5-6 mm in diameter, single tail vein injections of 2.5 nmol (or 0.5 mg/kg) of ICG-pHLIP in sterile PBS with 5% DMSO or 5% Ethanol (volume of the injection was 100 μl) were performed. The whole body and ex vivo imaging was performed using a Stryker 1588 AIM clinical imaging system with L10 AIM Light Source, 1588 AIM Camera using a 10 mm or 5 mm scope.
Animals were euthanized at time points: 5 min, 1 hr, 2 hrs, 4 hrs, 6 hrs, 16 hrs, 26 hrs and 48 hrs. […] 100 μl of blood was collected immediately after euthanasia and mixed with 12.5 μl of citrate-dextrose anticoagulant solution (kept at 4° C.), and necropsy was performed. Tumor, muscles, skin, heart, lungs, liver, spleen, kidneys, brain, pancreas, bone, stomach, small and large intestines were collected, imaged immediately after collection, weighed, and fast frozen in liquid nitrogen.
Blood samples mixed with of anti-coagulant solution were placed in 384 well plates (MatTek, glass bottom) (15 μL per well) and imaged on an Odyssey IR scanner (Li-Cor Biosciences). […] The same amounts (15 μL) of blood samples were placed in 384 well plate and imaged together with all other blood samples. The digital images were processed using the Image J program to calculate mean fluorescence intensity. The calibration curve (known concentration of ICG-pHLIP in blood samples vs intensity) was constructed to calculate the amount of ICG-pHLIP in blood samples collected from the mice at different times after construct administration.

[3] = in vivo; details: female, BALB/cAcNHsd, mouse, iv, 2.5 nmol, 4 hours post injection, constant up to 16 hours, rough estimation, read-out: amount of ICG-pHLIP in tumors
Experimental: The fluorescence signals in organs and tissue were also measured in the tissue/organ homogenates and compared with the signals from the control tissue/organ homogenates (collected from control mice) mixed with known amounts of ICG-pHLIP. About 100 mg of tissue (tumor, liver or kidney) were homogenized with 2.5× (about 250 μL) volumes of DMSO using BioMasher II disposable homogenizers (DiagnoCine LLC). 30 μl of homogenate was placed into 384 well plate and imaged using an Odyssey IR scanner. Tumor, liver or kidney homogenates of control mice, mixed with known concentrations of ICG-pHLIP were used to establish the calibration curve. First, note that the fluorescence signals obtained on the control tumor, liver and kidney mixed with the known amounts of ICG-pHLIP were the same. Second, the course of signal changes in tumor, liver and kidney (data not shown) was in excellent correlation with the course of the kinetics presented on FIGS. 18A-F. It is rather difficult to establish precisely the amount of ICG-pHLIP in the tissue and organ samples; however, rough estimations can be made using the calibration curve. […] At 26 hours, when the blood is cleared and the fluorescence signal in all organs is minimal, the contrast between tumor and surrounding tissue is very significant.

In the case of `CC(C)C[C@H](NC(=O)[C@H](Cc1ccc(O)cc1)NC(=O)[C@H](C)NC(=O)[C@H](CCCNC(=N)N)NC(=O)[C@H](Cc1c[nH]c2ccccc12)NC(=O)[C@@H]1CCCN1C(=O)[C@H](CC(N)=O)NC(=O)[C@H](CCC(N)=O)NC(=O)[C@H](CC(=O)O)NC(=O)[C@H](CC(=O)O)NC(=O)[C@H](CSC1CC(=O)N(CCNC(=O)CCCCCN2/C(=C/C=C/C=C/C=C/C3=[N+](CCCCS(=O)(=O)[O-])c4ccc5ccccc5c4C3(C)C)C(C)(C)c3c2ccc2ccccc32)C1=O)NC(=O)[C@H](C)N)C(=O)N[C@@H](CC(=O)O)C(=O)N[C@@H](CC(C)C)C(=O)N[C@@H](CC(C)C)C(=O)N[C@@H](Cc1ccccc1)C(=O)N1CCC[C@H]1C(=O)N[C@H](C(=O)N[C@@H](CC(=O)O)C(=O)N[C@H](C(=O)N[C@@H](CC(C)C)C(=O)N[C@@H](CC(C)C)C(=O)N[C@@H](CC(C)C)C(=O)N[C@@H](CC(=O)O)C(=O)N[C@@H](CC(C)C)C(=O)N[C@@H](CC(C)C)C(=O)N[C@@H](Cc1c[nH]c2ccccc12)C(=O)N[C@@H](C)C(=O)O)[C@@H](C)O)[C@@H](C)O` (stereo partly shown) [ICG-pHLIP] (H-AC(X1)DDQNPWRAYLDLLFPTDTLLLDLLWA-OH), the RBC lysis [1] is reported as “less than 2%”, the “Concentration in blood, Mean ± St. D.” value ([2]; 5 min p.i.) is reported as 2.28 ± 0.23 nmol and the Concentration in blood ([2]; 5 min p.i.) is reported as 2.56 nmol and 2.09 nmol and 2.47 nmol and 2.02 nmol and 2.24 nmol. For the same compound, the “Concentration in blood, Mean ± St. D.” value ([2]; 1 hour p.i.) was 1.25 ± 0.35 nmol, the Concentration in blood ([2]; 1 hour p.i.) was 1.40 nmol and 1.31 nmol and 1.73 nmol and 0.93 nmol and 0.88 nmol and the “Concentration in blood, Mean ± St. D.” value ([2]; 2 hours p.i.) was 0.59 ± 0.15 nmol. The Concentration in blood ([2]; 2 hours p.i.) was 0.64 nmol and 0.40 nmol and 0.67 nmol and 0.47 nmol and 0.76 nmol, the “Concentration in blood, Mean ± St. D.” value ([2]; 4 hours p.i.) was 0.51 ± 0.07 nmol and the Concentration in blood ([2]; 4 hours p.i.) was 0.41 nmol and 0.49 nmol and 0.57 nmol (2×) and 0.48 nmol. The “Concentration in blood, Mean ± St. D.” value ([2]; 6 hours p.i.) was 0.38 ± 0.06 nmol, the Concentration in blood ([2]; 6 hours p.i.) was 0.41 nmol and 0.38 nmol and 0.32 nmol and 0.35 nmol and 0.46 nmol and the “Concentration in blood, Mean ± St. D.” value ([2]; 16 hours p.i.) was 0.12 ± 0.03 nmol. For the same compound, the Concentration in blood ([2]; 16 hours p.i.) was 0.11 nmol and 0.13 nmol and 0.10 nmol and 0.16 nmol and 0.08 nmol, the “Concentration in blood, Mean ± St. D.” value ([2]; 26 hours p.i.) was 0.02 ± 0.01 nmol and the Concentration in blood ([2]; 26 hours p.i.) was 0.02 nmol (3×) and 0.03 nmol (2×). For the same compound, the half-life ([2]; female, BALB/cAcNHsd, mouse, whole blood, intravenous, 0.5 mg/kg, two-phase kinetics, read-out: characteristic half lifetime of blood clearance, first phase (converted)) was 36 min, the “characteristic time for complete clearance of the blood, second phase” value ([2]; two-phase kinetics) was 7.5 h and the “signal drop in first phase of blood clearance” value ([2]; two-phase kinetics) was 66%. It also gave a tissue uptake [3] of 10 to 15 %ID/g.
